US8455448B2, “Myostatin isoform” (Myostin Therapeutics Pty Ltd, priority 2004, dated 2013)

Assays:
[1] = tested on: rats bearing the AH130 tumour; experiment: Muscle mass during cancer-induced cachexia, rats with AH130 tumour; assay type: in vivo, rat; conditions: 1 μg/g bodymass s.c. twice daily for 6 d, six hind limb muscles, FIG. 18
Description: In this study, 21 male rats (three months of age) were allocated at random into three groups of seven. Group one was injected i.p. with sterile saline (non-cancer controls), groups two and three were inoculated i.p. with 100 μl of the AH130 tumour (Baracos et al 1995). Groups one and two were injected twice daily s.c. for six days with sterile saline, while group three was injected twice daily s.c. for six days with 1 μg/g bodymass with roMSV47. Rats were killed at day six and, at death, skeletal muscles (biceps femoris, gastrocnemius, tibialis anterior, quadriceps femoris, plantaris and soleus) were excised from the right hind limb of each rat and the wet mass expressed as a percent of the initial body mass on day 0.
The ascites hepatoma 130 (AH130) was obtained as a gift from Dr Vicki Baracos (University of Alberta, Edmonton, Alberta, Canada) and stored in cryovials in liquid nitrogen in a solution of 50% DMSO and 10% BSA. An aliquot was retrieved and thawed and 1 ml was injected i.p. into each of three donor rats and allowed to grow for seven days. The rats were killed by CO2 asphyxiation followed by cervical dislocation. […] The volume of ascites in the peritoneal cavity was removed with a syringe and the volume recorded. Six muscles in the right hind limb (biceps femoris, gastrocnemius, soleus, plantaris, tibialis anterior and quadriceps femoris) were excised and their mass recorded. […]

[2] = tested on: primary ovine myoblasts; experiment: Proliferation assay of primary ovine myoblasts (methylene blue); assay type: cell-based; conditions: roMSV65 0 to 10 μg/ml, 72 h, FIG. 3B
Description: Myoblasts were seeded in 96-well tissue culture plates (Nunc, Roskilde, Denmark) at a cell density of 1000 cells per well in 200 μl of Dulbecco's modified Eagle's medium (DMEM, Invitrogen, California) supplemented with foetal bovine serum (FBS, 10% v/v, Invitrogen), penicillin (1×10^5 IU/l, Sigma, St Louis, Mo., USA) and streptomycin (100 mg/l, Sigma) buffered with NaHCO3 containing phenol red (7.22 nmol/l) as a pH indicator, and incubated overnight at 37° C. with 5% CO2. Medium was replaced with DMEM 10% FBS test medium containing 0, 0.001, 0.003, 0.01, 0.03, 0.1, 0.3, 1, 3 or 10 μg/ml oMSV65 in a semi-random arrangement of eight replicates (n=8) for each test medium. Plates were incubated at 37° C. with 5% CO2 for 72 hours, and then the medium was removed. The wells were washed with 200 μl of phosphate buffered saline (PBS, Oxoid, UK) and fixed with 100 μl of 10% formaldehyde, 0.9% NaCl solution for at least one hour. The fixative was then removed and 100 μl of 1% methylene blue stain in 0.01 M borate buffer (pH 8.5) was added to each well and incubated for 30 min at room temperature. Excess stain was removed by four sequential washes in borate buffer. Methylene blue was eluted from the cells by the addition of 100 μl 1:1 (v/v) ethanol/0.1 HCl. The plates were gently shaken and the absorbance was measured at 655 nm using a microplate photometer (FIGS. 3a and 3b).

[3] = tested on: p21; experiment: p21 protein in proliferating C2C12 myoblasts (Western blot); assay type: cell-based, murine; conditions: 0.1, 1, 10 μg/ml, 48 h, FIG. 6
Description: Thus, a decrease in p21 protein expression may indicate an increased cell proliferation rate. PCNA is a positive marker of cell proliferation. It is a subunit of DNA polymerase-delta during DNA replication in the cell cycle. Higher level of PCNA protein expression is associated with higher number of cells entering the DNA replication phase of the cell cycle.
C2C12 myoblasts were seeded in 10 cm diameter tissue culture plates (Nunc, Roskilde, Denmark) at a cell density of 3000 cells per cm^2 in 10 ml of Dulbecco's modified Eagle's medium (DMEM, Invitrogen, California) supplemented with foetal bovine serum (FBS, 10% v/v, Invitrogen), penicillin (1×105 IU/l, Sigma, St Louis, Mo., USA) and streptomycin (100 mg/l, Sigma) buffered with NaHCO3 containing phenol red (7.22 nmol/l) as a pH indicator, and incubated overnight at 37° C. with 5% CO2. The medium was replaced with the test medium: DMEM with 10% FBS supplemented with, 0.1, 1 or 10 μg/ml oMSV65 (n=3). The plates were then incubated at 37° C. with 5% CO2 for 48 hours. Cells were removed from the plate by trypsin treatment, washed with phosphate buffered saline (PBS, Oxoid, UK) and resuspended in 100 μl of lysis buffer (10 mM Hepes pH 7.9, 1.5 mM MgCl2, 10 mM KCl, 0.5% NP40, one Complete protease inhibitor tablet [Roche Diagnostics, USA] per 50 ml buffer). […] Band intensities were measured with a GS800 densitometer (BioRad, USA).

Row | Molecule | reduction of generalised wasting of skeletal muscle induced by cancer [1] | myoblast cell growth (proliferation) [2] | p21 protein levels in proliferating C2C12 myoblasts [3]
1 | roMSV47: 47 amino acid C-terminal mature ovine MSV fragment (SEQ ID NO: 50), recombinant from E. coli (IIFLEVYIQFCSILGEAVFKRQSKSIHFCQNFKIIACLCNTAAFRMK; Ovis aries) | 20% | – | –
2 | roMSV65: 65 amino acid C-terminal peptide of ovine MSV (SEQ ID NO: 49) expressed as recombinant protein in E. coli (protein, Ovis aries) VHFYTPPYGQWIFHKERKIIFLEVYIQFCSILGEAVFKRQSKSIHFCQNFKIIACLCNTAAFRMK | – | stimulate myoblast cell growth in a dose dependent manner | dose-dependently decreases p21 protein levels
